The target of experiment [1] is recombinant ClfA229-545 (S. aureus clumping factor A, N2N3 domains), 6xHis tagged (Staphylococcus aureus) (UniProt Q53653).
A further experiment addresses human fibrinogen (human) (UniProt P02671).
For experiment [2], the target named is human 15-mer C-terminal Fg γ-chain peptide (…) (human). The experiment can be described thus: human 15-mer peptide.
Experiment [3] addresses human 17-mer C-terminal Fg γ-chain peptide (…) (human). The experiment can be described thus: human 17-mer peptide.
Experiment [4] has as its target recombinant ClfA229-545 (S. aureus clumping factor A, N2N3 domains), 6xHis tagged (Staphylococcus aureus) (UniProt Q53653). This is another data set of the same source.

Here are results for three substances from patent US20110171285A1, “Design of Fibrinogen and Fibrinogen Derived Products with Reduced Bacterial Binding by Using Modified Sequences of Fibrinogen Chains” (priority 2009, published 2011).

pKd: −log10 of the molar value. Read-outs that look alike come from different tables or passages of the source.

Sequence of recombinant ClfA229-545 (S. aureus clumping factor A, N2N3 domains), 6xHis tagged (Staphylococcus aureus) (Q53653 229-545 limits assumed): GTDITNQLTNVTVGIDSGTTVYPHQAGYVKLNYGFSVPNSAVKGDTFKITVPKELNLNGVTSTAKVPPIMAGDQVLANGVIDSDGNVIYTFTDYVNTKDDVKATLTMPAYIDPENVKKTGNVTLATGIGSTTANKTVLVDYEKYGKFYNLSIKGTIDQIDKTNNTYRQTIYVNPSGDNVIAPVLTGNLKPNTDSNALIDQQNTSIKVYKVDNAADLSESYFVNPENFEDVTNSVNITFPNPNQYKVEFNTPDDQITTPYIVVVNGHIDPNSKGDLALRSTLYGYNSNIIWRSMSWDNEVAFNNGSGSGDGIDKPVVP
Sequence of human fibrinogen (human) (P02671 20-629 limits assumed, chain 1 of 3): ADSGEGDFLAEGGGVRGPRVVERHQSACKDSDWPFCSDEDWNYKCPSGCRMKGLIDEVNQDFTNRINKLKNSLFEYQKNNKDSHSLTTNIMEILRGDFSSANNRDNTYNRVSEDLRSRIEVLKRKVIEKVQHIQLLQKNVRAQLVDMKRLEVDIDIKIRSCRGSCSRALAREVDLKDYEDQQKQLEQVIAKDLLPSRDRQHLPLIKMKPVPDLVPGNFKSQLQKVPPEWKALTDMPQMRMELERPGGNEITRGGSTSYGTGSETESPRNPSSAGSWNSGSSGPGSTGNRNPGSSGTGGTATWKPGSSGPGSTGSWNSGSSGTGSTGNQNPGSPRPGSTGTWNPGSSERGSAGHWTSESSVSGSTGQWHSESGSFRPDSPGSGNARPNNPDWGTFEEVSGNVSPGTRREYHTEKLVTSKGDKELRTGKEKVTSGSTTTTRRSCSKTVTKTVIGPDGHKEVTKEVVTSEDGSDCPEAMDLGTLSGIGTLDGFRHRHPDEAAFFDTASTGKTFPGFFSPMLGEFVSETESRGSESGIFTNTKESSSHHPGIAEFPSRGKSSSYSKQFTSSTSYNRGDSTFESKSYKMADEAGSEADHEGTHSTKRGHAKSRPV
Sequence of human fibrinogen (human) (P02675 31-491 limits assumed, chain 2 of 3, further chain): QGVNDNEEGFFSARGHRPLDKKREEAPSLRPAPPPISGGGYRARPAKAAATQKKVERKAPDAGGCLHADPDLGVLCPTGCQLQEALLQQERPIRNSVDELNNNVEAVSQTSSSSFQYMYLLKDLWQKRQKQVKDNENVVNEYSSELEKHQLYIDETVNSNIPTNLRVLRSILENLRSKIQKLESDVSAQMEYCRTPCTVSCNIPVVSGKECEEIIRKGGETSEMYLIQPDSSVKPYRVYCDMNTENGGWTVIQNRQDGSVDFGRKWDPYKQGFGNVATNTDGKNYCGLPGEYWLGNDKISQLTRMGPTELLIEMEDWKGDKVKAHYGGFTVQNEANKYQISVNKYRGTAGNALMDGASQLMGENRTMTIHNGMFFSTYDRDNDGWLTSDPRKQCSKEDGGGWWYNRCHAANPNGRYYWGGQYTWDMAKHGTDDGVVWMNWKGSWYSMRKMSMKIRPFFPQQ
Sequence of human fibrinogen (human) (P02679 other isoform, or with tags, fused parts or gaps limits assumed, chain 3 of 3, further chain): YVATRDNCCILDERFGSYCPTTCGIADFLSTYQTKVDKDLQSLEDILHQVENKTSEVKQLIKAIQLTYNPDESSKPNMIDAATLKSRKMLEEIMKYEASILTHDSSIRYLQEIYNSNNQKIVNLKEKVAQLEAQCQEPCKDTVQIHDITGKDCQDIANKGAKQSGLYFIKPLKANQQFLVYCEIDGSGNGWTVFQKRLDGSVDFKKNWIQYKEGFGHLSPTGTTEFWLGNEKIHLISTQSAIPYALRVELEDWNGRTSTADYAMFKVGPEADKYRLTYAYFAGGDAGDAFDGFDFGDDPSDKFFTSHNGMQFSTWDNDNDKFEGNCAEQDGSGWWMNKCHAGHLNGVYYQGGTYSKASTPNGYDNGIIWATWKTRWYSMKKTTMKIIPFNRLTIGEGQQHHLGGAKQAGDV

As for “human 15-mer C-terminal Fg γ-chain peptide (…)”, in experiment [1], the N stood at 1.29, the ΔH is -3640 and the ΔS is 8.03.

In the case of “recombinant ClfA229-545 (S. aureus clumping factor A, N2N3 domains), 6xHis tagged (from UniProt Q53653 229-545)”, the EC50 (read off the curve) in the experiment with human fibrinogen (human) was determined as 0.2 µM. For the same substance, the pKd in experiment [2] was 4.40; in experiment [3] it was 4.64.

On to “sheep (ovine) 15-mer C-terminal Fg γ-chain peptide (…)”, for which, in experiment [4], the N is 16.2, the ΔH amounted to 1340 and the ΔS stood at 20.4.
